Measurements reported in paper PMC9482650, “Quantitative fragmentomics allow affinity mapping of interactomes” (Nature Communications, 2022).

Tests used:
Experiment in all cases: holdup assay
Parameters in all cases: key: below the threshold = too weak to quantify, mostly under pKd 3.1 to 4
[1] = target: SCRIB_1, Q14160; details: plain residues with an end cap or a label only (N-terminal biotin on a linker: ado-ado)
[2] = target: TJP2_1, Q9UDY2; details: plain residues with an end cap or a label only (N-terminal biotin on a linker: ado-ado)
[3] = target: MAGI3_2, Q5TCQ9; details: plain residues with an end cap or a label only (N-terminal biotin on a linker: ado-ado)
[4] = target: T1, PDZRN3_1, Q9UPQ7; details: plain residues with an end cap or a label only (N-terminal biotin on a linker: ado-ado)
T1 sequence (Q9UPQ7 244-349, limits assumed, looked up): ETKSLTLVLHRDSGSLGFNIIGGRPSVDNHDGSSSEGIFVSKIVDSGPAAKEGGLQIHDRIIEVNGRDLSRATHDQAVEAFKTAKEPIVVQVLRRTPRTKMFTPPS

[5] = target: Inadl_8, Q8NI35; details: plain residues with an end cap or a label only (N-terminal biotin on a linker: ado-ado)
[6] = target: LNX1_1, Q8TBB1; details: plain residues with an end cap or a label only (N-terminal biotin on a linker: ado-ado)
[7] = target: MAGI1_2, Q96QZ7; details: plain residues with an end cap or a label only (N-terminal biotin on a linker: ado-ado)
[8] = target: T2, SNTA1, Q13424
T2 sequence (Q13424 82-180, limits assumed, looked up): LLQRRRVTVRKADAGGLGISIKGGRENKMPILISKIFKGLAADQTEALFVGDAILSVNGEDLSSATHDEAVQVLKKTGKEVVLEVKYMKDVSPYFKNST

[9] = target: MAGI2_2, Q86UL8; details: plain residues with an end cap or a label only (N-terminal biotin on a linker: ado-ado)
[10] = target: HTRA1, Q92743; details: plain residues with an end cap or a label only (N-terminal biotin on a linker: ado-ado)
[11] = target: T3, RHPN1, Q8TCX5; details: plain residues with an end cap or a label only (N-terminal biotin on a linker: ado-ado)
T3 sequence (Q8TCX5 508-602, limits assumed, looked up): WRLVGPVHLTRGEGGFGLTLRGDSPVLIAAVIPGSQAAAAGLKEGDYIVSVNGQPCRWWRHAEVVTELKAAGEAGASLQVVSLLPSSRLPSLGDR

[12] = target: DLG4_1, P78352; details: plain residues with an end cap or a label only (N-terminal biotin on a linker: ado-ado)
[13] = target: MAGI2_5, Q86UL8; details: plain residues with an end cap or a label only (N-terminal biotin on a linker: ado-ado)
[14] = target: T4, DFNB31_1, Q9P202; details: plain residues with an end cap or a label only (N-terminal biotin on a linker: ado-ado)
T4 sequence (Q9P202 135-233, limits assumed, looked up): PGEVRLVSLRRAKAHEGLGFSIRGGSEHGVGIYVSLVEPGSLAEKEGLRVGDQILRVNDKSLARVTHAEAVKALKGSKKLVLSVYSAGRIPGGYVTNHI

[15] = target: SNX27, Q96L92; details: plain residues with an end cap or a label only (N-terminal biotin on a linker: ahx)
[16] = target: T5, SYNJ2BP, P57105; details: plain residues with an end cap or a label only (N-terminal biotin on a linker: ahx)
T5 sequence (P57105 8-110, limits assumed, looked up): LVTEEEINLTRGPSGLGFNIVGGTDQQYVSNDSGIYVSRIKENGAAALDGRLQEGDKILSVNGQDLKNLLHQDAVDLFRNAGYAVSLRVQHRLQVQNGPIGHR

[17] = target: ARHGEF12, Q9NZN5-2; details: plain residues with an end cap or a label only (N-terminal biotin on a linker: ahx)
[18] = target: T6, SHANK1, Q9Y566; details: plain residues with an end cap or a label only (N-terminal biotin on a linker: ahx)
T6 sequence (Q9Y566 658-767, limits assumed, looked up): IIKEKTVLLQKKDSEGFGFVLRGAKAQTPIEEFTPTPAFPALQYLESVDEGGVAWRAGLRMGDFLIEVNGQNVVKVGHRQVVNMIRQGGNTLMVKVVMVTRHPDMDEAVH

[19] = target: MAGI2_4, Q86UL8
[20] = target: T7, SNTB1, Q13884; details: plain residues with an end cap or a label only (N-terminal biotin on a linker: ahx)
T7 sequence (Q13884 107-205, limits assumed, looked up): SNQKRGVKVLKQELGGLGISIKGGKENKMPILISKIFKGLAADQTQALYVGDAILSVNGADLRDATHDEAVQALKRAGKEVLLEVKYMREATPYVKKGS

[21] = target: T8, DLG3_3, Q92796; details: plain residues with an end cap or a label only (N-terminal biotin on a linker: ahx)
T8 sequence (Q92796 374-475, limits assumed, looked up): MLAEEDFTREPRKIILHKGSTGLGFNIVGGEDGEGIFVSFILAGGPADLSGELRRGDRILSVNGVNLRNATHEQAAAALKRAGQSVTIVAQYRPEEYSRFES

[22] = target: DLG2_2, Q15700; details: plain residues with an end cap or a label only (N-terminal biotin on a linker: ahx)
[23] = target: PARD3_3, Q8TEW0; details: plain residues with an end cap or a label only (N-terminal biotin on a linker: ahx)
[24] = target: IL16_4, Q14005; details: plain residues with an end cap or a label only (N-terminal biotin on a linker: ado-ado)
[25] = target: T9, SNTG2, Q9NY99; details: plain residues with an end cap or a label only (N-terminal biotin on a linker: ado-ado)
T9 sequence (Q9NY99 68-166, limits assumed, looked up): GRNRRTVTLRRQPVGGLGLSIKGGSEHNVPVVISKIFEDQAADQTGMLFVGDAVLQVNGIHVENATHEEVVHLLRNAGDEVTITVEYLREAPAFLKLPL

[26] = target: LNX1_2, Q8TBB1; details: plain residues with an end cap or a label only (N-terminal biotin on a linker: ado-ado)
[27] = target: Inadl_9, Q8NI35; details: plain residues with an end cap or a label only (N-terminal biotin on a linker: ado-ado)
[28] = target: TJP1_2, Q07157; details: plain residues with an end cap or a label only (N-terminal biotin on a linker: ado-ado)
[29] = target: T10, HTRA3, P83110; details: plain residues with an end cap or a label only (N-terminal biotin on a linker: ado-ado)
T10 sequence (P83110 354-453, limits assumed, looked up): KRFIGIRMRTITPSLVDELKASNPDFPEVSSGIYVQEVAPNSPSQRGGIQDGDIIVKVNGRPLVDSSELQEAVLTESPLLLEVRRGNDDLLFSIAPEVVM

[30] = target: Inadl_3, Q8NI35; details: plain residues with an end cap or a label only (N-terminal biotin on a linker: ado-ado)
[31] = target: T11, ARHGAP21, Q5T5U3; details: plain residues with an end cap or a label only (N-terminal biotin on a linker: ado-ado)
T11 sequence (Q5T5U3 45-169, limits assumed, looked up): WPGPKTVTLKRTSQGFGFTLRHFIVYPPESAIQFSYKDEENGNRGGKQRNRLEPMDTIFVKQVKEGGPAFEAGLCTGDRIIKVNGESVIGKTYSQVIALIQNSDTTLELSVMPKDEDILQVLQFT

[32] = target: HTRA2, O43464; details: plain residues with an end cap or a label only (N-terminal biotin on a linker: ado-ado)
[33] = target: T12, PARD3B_1, Q8TEW8; details: plain residues with an end cap or a label only (N-terminal biotin on a linker: ado-ado)
T12 sequence (Q8TEW8 196-299, limits assumed, looked up): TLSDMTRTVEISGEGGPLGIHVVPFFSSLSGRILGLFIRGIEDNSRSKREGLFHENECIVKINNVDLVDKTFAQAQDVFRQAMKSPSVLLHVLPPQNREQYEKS

[34] = target: PTPN3, P26045; details: plain residues with an end cap or a label only (N-terminal biotin on a linker: ado-ado)
[35] = target: T13, MPDZ_10, O75970; details: plain residues with an end cap or a label only (N-terminal biotin on a linker: ahx)
T13 sequence (O75970 1624-1722, limits assumed, looked up): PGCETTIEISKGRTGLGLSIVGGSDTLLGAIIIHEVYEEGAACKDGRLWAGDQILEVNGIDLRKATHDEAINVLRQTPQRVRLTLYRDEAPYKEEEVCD

[36] = target: T14, PDZD7_3, Q9H5P4; details: plain residues with an end cap or a label only (N-terminal biotin on a linker: ahx)
T14 sequence (Q9H5P4 857-944, limits assumed, looked up): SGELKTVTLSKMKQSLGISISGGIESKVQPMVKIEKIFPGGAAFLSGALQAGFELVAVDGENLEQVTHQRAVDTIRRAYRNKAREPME

[37] = target: PDLIM1, O00151; details: plain residues with an end cap or a label only (N-terminal biotin on a linker: ado-ado)
[38] = target: SCRIB_2, Q14160; details: plain residues with an end cap or a label only (N-terminal biotin on a linker: ado-ado)
[39] = target: T15, MPDZ_12, O75970; details: plain residues with an end cap or a label only (N-terminal biotin on a linker: ado-ado)
T15 sequence (O75970 1857-1958, limits assumed, looked up): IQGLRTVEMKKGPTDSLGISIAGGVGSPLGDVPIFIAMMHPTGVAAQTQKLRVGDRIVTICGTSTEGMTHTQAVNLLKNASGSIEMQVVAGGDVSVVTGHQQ

[40] = target: DLG2_3, Q15700; details: plain residues with an end cap or a label only (N-terminal biotin on a linker: ado-ado)
[41] = target: LAP2, Q96RT1; details: plain residues with an end cap or a label only (N-terminal biotin on a linker: ado-ado)
[42] = target: T16, LIN7C, Q9NUP9; details: plain residues with an end cap or a label only (N-terminal biotin on a linker: ado-ado)
T16 sequence (Q9NUP9 88-185, limits assumed, looked up): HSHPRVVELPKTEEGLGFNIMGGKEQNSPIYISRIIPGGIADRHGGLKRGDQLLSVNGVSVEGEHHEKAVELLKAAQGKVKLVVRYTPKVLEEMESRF

[43] = target: T17, LIN7B, Q9HAP6; details: plain residues with an end cap or a label only (N-terminal biotin on a linker: ado-ado)
T17 sequence (Q9HAP6 88-185, limits assumed, looked up): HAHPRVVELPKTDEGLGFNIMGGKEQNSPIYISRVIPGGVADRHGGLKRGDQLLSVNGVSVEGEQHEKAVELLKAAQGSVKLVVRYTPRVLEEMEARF

[44] = plain residues with an end cap or a label only (N-terminal biotin on a linker: ado-ado)
[45] = plain residues with an end cap or a label only (N-terminal biotin on a linker: ahx)

HTRA1, Q92743, sequence (Q92743 360-477): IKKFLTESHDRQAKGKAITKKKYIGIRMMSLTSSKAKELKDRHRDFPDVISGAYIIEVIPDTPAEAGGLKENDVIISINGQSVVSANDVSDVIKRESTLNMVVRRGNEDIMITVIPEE
MAGI2_4, Q86UL8, sequence (Q86UL8 772-865): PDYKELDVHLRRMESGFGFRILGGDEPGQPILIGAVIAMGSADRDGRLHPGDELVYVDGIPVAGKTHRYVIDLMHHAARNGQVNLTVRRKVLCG
LNX1_2, Q8TBB1, sequence (Q8TBB1 371-470): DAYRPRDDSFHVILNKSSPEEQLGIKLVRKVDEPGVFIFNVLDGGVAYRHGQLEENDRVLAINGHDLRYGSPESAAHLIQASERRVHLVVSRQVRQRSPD
PDLIM1, O00151, sequence (O00151 1-87): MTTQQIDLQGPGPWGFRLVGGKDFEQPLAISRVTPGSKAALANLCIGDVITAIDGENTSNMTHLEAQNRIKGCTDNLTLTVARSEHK
ARHGEF12, Q9NZN5-2, sequence (Q9NZN5 other isoform, or with tags, fused parts or gaps): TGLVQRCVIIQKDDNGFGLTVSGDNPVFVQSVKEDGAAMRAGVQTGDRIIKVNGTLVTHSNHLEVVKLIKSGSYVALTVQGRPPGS
MAGI2_2, Q86UL8, sequence (Q86UL8 410-522): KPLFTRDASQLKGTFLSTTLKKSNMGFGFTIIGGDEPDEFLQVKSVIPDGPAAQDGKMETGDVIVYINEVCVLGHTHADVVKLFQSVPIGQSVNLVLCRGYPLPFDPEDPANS
Inadl_9, Q8NI35, sequence (Q8NI35 1530-1615): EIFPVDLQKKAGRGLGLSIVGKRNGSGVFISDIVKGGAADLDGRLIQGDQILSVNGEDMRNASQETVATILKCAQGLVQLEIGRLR
PTPN3, P26045, sequence (P26045 505-587): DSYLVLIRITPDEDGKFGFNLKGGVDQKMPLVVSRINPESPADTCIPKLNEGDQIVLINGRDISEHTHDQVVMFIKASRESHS
TJP2_1, Q9UDY2, sequence (Q9UDY2 24-128): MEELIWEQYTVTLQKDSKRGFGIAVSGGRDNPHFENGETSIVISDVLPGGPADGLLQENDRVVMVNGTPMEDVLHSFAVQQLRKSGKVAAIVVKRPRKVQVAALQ
MAGI3_2, Q5TCQ9, sequence (Q5TCQ9 398-503): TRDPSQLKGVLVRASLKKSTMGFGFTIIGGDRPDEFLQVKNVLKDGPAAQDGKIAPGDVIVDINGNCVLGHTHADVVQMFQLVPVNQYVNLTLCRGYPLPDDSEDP
TJP1_2, Q07157, sequence (Q07157 181-274): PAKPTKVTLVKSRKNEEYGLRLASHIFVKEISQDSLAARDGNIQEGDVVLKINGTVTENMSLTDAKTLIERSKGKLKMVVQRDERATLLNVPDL
IL16_4, Q14005, sequence (Q14005 1229-1329): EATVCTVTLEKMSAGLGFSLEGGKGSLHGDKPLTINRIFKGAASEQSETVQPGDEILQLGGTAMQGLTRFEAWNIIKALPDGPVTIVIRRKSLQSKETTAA
DLG4_1, P78352, sequence (P78352 62-152): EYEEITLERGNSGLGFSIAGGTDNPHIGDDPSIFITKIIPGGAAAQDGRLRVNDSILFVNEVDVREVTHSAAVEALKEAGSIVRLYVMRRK
SCRIB_1, Q14160, sequence (Q14160 718-814): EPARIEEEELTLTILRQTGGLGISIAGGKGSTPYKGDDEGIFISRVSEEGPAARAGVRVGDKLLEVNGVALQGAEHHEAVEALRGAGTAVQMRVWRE
PARD3_3, Q8TEW0, sequence (Q8TEW0 582-685): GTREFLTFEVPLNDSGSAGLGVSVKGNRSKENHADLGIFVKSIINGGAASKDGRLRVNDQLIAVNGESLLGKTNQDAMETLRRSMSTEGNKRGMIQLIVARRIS
MAGI2_5, Q86UL8, sequence (Q86UL8 915-1017): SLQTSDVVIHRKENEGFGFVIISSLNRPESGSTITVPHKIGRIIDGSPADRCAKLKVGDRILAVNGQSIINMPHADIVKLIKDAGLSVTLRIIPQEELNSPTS
HTRA2, O43464, sequence (O43464 355-458): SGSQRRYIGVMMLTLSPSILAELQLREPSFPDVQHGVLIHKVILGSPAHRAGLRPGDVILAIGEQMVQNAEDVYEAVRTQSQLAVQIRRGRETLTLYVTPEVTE
MAGI1_2, Q96QZ7, sequence (Q96QZ7 456-580): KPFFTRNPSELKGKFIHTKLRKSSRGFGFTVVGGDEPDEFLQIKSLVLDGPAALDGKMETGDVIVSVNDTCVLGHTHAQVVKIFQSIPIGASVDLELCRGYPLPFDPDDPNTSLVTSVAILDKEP
Inadl_3, Q8NI35, sequence (Q8NI35 359-469): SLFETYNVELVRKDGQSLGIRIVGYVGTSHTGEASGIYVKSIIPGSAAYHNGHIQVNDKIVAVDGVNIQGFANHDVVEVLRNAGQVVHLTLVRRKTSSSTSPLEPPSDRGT
Inadl_8, Q8NI35, sequence (Q8NI35 1425-1530): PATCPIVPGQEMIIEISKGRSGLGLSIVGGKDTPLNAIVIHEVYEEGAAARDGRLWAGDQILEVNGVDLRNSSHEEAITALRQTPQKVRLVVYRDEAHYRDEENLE
LNX1_1, Q8TBB1, sequence (Q8TBB1 261-371): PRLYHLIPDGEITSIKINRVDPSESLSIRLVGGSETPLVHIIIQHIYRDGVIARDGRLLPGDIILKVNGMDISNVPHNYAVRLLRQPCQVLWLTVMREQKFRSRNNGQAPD
LAP2, Q96RT1, sequence (Q96RT1 other isoform, or with tags, fused parts or gaps): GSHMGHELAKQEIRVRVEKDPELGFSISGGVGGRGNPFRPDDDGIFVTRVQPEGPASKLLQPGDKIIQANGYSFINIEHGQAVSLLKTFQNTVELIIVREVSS
SCRIB_2, Q14160, sequence (Q14160 857-960): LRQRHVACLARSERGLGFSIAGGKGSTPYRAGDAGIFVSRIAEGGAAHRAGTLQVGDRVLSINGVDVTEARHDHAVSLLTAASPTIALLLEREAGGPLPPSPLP

LPAHHNATRL [SLC34A1, Q06495]
pKd [1]: 3.82
pKd [2]: 3.54
pKd [3]: 3.69
pKd [4]: 3.77
pKd [5]: 3.52
pKd [6]: 3.72
pKd [7]: 3.8
pKd [8, 44]: 3.71
pKd [9]: 3.87
pKd [10]: 3.73
pKd [11]: 3.82
pKd [12]: 3.51
pKd [13]: 3.69
pKd [14]: 3.73

LSDPSVSTVV [GRIN1, Q05586]
pKd [15]: 3.61
pKd [16]: 3.72
pKd [17]: 3.71
pKd [18]: 3.72
pKd [19, 45]: 3.83
pKd [20]: 3.55
pKd [21]: 3.57
pKd [8, 45]: 3.68
pKd [22]: 3.71
pKd [23]: 3.56

VYPNAKVELV [PDLIM4_iso2, P50479]
pKd [24]: 3.83
pKd [25]: 3.48
pKd [26]: 3.54
pKd [27]: 3.57
pKd [19, 44]: 3.56
pKd [28]: 3.52
pKd [29]: 3.62
pKd [30]: 3.54
pKd [31]: 3.8
pKd [32]: 3.69
pKd [33]: 3.6
pKd [34]: 3.87

PSASCAVTAA [PDLIM4, P50479]
pKd [35]: 3.76
pKd [36]: 3.48

YLEPVLSSEL [ATP2A2, P16615]
pKd [4]: 3.7
pKd [37]: 3.48
pKd [38]: 3.56
pKd [39]: 3.55
pKd [40]: 3.66
pKd [10]: 3.62
pKd [41]: 3.53
pKd [42]: 3.8
pKd [43]: 3.83
